Results published in publication PMC6100179, “Kinetic Basis of the Bifunctionality of SsoII DNA Methyltransferase”.
Positions count from the first letter of the chain named.

Columns and labels:
[1] = target: T1, M.SsoII (two subunits on DNA) (UniProt P34879 1-379); assay: EMSA; 100 uM AdoHcy; cooperative, C2 much more than C1; EMSA: 50 mM Tris-HCl pH 7.5, 100 mM NaCl, 5 mM beta-mercaptoethanol, 0.1 mg/mL BSA, 25% glycerol, 100 uM AdoHcy, 37 C then room temperature, 2.5 nM DNA; stopped-flow: 50 mM Tris-HCl pH 7.5, 100 mM NaCl, 5 mM beta-mercaptoethanol, 25 C, 100 nM DNA; settings: protein: recombinant; tags: N-terminal His-tag MRGS(H)6TDPLETC; chain copies: 2; label: TAMRA (internal, on dU C5, position 5)
T1 sequence: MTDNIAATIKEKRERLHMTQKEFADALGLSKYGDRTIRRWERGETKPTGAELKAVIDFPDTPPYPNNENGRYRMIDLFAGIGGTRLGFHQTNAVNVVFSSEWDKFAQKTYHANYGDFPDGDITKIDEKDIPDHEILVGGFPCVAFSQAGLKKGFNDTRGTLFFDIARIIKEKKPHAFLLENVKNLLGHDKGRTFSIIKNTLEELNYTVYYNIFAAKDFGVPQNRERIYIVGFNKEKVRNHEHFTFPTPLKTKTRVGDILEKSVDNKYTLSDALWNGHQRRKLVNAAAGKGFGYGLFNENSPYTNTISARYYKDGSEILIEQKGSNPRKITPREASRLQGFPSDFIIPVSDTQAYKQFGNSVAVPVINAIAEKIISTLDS

M.SsoII (monomer on DNA) [2] = target: T2, M.SsoII (monomer on DNA) (UniProt P34879 1-379); assay: stopped-flow fluorescence anisotropy; 100 uM AdoHcy; k1 352 uM-1 s-1, k-1 71 s-1, k2 2.30 s-1, k-2 12.8 s-1; EMSA: 50 mM Tris-HCl pH 7.5, 100 mM NaCl, 5 mM beta-mercaptoethanol, 0.1 mg/mL BSA, 25% glycerol, 100 uM AdoHcy, 37 C then room temperature, 2.5 nM DNA; stopped-flow: 50 mM Tris-HCl pH 7.5, 100 mM NaCl, 5 mM beta-mercaptoethanol, 25 C, 100 nM DNA; settings: protein: recombinant; tags: N-terminal His-tag MRGS(H)6TDPLETC; label: TAMRA (internal, on dU C5, position 5)
T2 sequence: T1 sequence

[3] = target: T1, M.SsoII (two subunits on DNA); assay: EMSA; 100 uM AdoHcy; C2* above 2:1 protein/DNA, second molecule presumably nonspecific; EMSA: 50 mM Tris-HCl pH 7.5, 100 mM NaCl, 5 mM beta-mercaptoethanol, 0.1 mg/mL BSA, 25% glycerol, 100 uM AdoHcy, 37 C then room temperature, 2.5 nM DNA; stopped-flow: 50 mM Tris-HCl pH 7.5, 100 mM NaCl, 5 mM beta-mercaptoethanol, 25 C, 100 nM DNA; settings: protein: recombinant; tags: N-terminal His-tag MRGS(H)6TDPLETC; chain copies: 2; label: TAMRA
[4] = target: T1, M.SsoII (two subunits on DNA); assay: EMSA; 100 uM AdoHcy; C1 and C2; EMSA: 50 mM Tris-HCl pH 7.5, 100 mM NaCl, 5 mM beta-mercaptoethanol, 0.1 mg/mL BSA, 25% glycerol, 100 uM AdoHcy, 37 C then room temperature, 2.5 nM DNA; stopped-flow: 50 mM Tris-HCl pH 7.5, 100 mM NaCl, 5 mM beta-mercaptoethanol, 25 C, 100 nM DNA; settings: protein: recombinant; tags: N-terminal His-tag MRGS(H)6TDPLETC; chain copies: 2; label: TAMRA (position 5)
M.SsoII (monomer on DNA) [5] = target: T2, M.SsoII (monomer on DNA); assay: stopped-flow fluorescence anisotropy; 100 uM AdoMet; k1 390 uM-1 s-1, k-1 88 s-1, k2 1.13 s-1, k-2 9.6 s-1; EMSA: 50 mM Tris-HCl pH 7.5, 100 mM NaCl, 5 mM beta-mercaptoethanol, 0.1 mg/mL BSA, 25% glycerol, 100 uM AdoHcy, 37 C then room temperature, 2.5 nM DNA; stopped-flow: 50 mM Tris-HCl pH 7.5, 100 mM NaCl, 5 mM beta-mercaptoethanol, 25 C, 100 nM DNA; settings: protein: recombinant; tags: N-terminal His-tag MRGS(H)6TDPLETC; label: TAMRA (position 5)
M.SsoII (monomer on DNA) [6] = target: T2, M.SsoII (monomer on DNA); assay: stopped-flow fluorescence anisotropy; 100 uM AdoHcy; k1 226 uM-1 s-1, k-1 158 s-1, k2* 0.22 s-1, k-2* 0.50 s-1; EMSA: 50 mM Tris-HCl pH 7.5, 100 mM NaCl, 5 mM beta-mercaptoethanol, 0.1 mg/mL BSA, 25% glycerol, 100 uM AdoHcy, 37 C then room temperature, 2.5 nM DNA; stopped-flow: 50 mM Tris-HCl pH 7.5, 100 mM NaCl, 5 mM beta-mercaptoethanol, 25 C, 100 nM DNA; settings: protein: recombinant; tags: N-terminal His-tag MRGS(H)6TDPLETC; label: TAMRA (bottom 33 or 35)
M.SsoII (monomer on DNA) [7] = target: T2, M.SsoII (monomer on DNA); assay: stopped-flow fluorescence anisotropy; 100 uM AdoHcy; k1 181 uM-1 s-1, k-1 143 s-1, k2* 0.40 s-1, k-2* 1.5 s-1; EMSA: 50 mM Tris-HCl pH 7.5, 100 mM NaCl, 5 mM beta-mercaptoethanol, 0.1 mg/mL BSA, 25% glycerol, 100 uM AdoHcy, 37 C then room temperature, 2.5 nM DNA; stopped-flow: 50 mM Tris-HCl pH 7.5, 100 mM NaCl, 5 mM beta-mercaptoethanol, 25 C, 100 nM DNA; settings: protein: recombinant; tags: N-terminal His-tag MRGS(H)6TDPLETC; label: TAMRA (top 25 or bottom 33/35)
M.SsoII (monomer on DNA) [8] = target: T2, M.SsoII (monomer on DNA); assay: stopped-flow fluorescence anisotropy; 100 uM AdoMet; k1 386 uM-1 s-1, k-1 154 s-1, k2 0.68 s-1, k-2 6.5 s-1; EMSA: 50 mM Tris-HCl pH 7.5, 100 mM NaCl, 5 mM beta-mercaptoethanol, 0.1 mg/mL BSA, 25% glycerol, 100 uM AdoHcy, 37 C then room temperature, 2.5 nM DNA; stopped-flow: 50 mM Tris-HCl pH 7.5, 100 mM NaCl, 5 mM beta-mercaptoethanol, 25 C, 100 nM DNA; settings: protein: recombinant; tags: N-terminal His-tag MRGS(H)6TDPLETC; label: TAMRA (position 21)

B1: 60reg-1 (dsDNA)
DNA 1: ACGTTCATAATTGGAATCAAAACAGGACAAATTGTCCTAAAACCAACACTTAATTCTGGT
DNA 2: ACCAGAATTAAGTGTTGGTTTTAGGACAATTTGTCCTGTTTTGATTCCAATTATGAACGT
binding result [1]: binds | binding result (M.SsoII (monomer on DNA) [2]): binds

B2: 60half-1 (dsDNA)
DNA 1: B1 DNA 1 with T32C, T33A, G34T, C36A, C37T, T38C
DNA 2: B1 DNA 2 with A23G, G24A, G25T, C27A, A28T, A29G
binding result [3]: binds

B3: 60half-2 (dsDNA)
DNA 1: B1 DNA 1 with A24C, G25A, G26T, A27T, C28A, A29T, A30C
DNA 2: B1 DNA 2 with T31G, T32A, G33T, T34A, C35A, C36T, T37G
binding result [3]: binds

B4: 60reg-2 (dsDNA)
DNA 1: ACGTTCATAATTGGAATCTTTTCAGGACAAATTGTCCTTTTTCCAACACTTAATTCTGGT
DNA 2: ACCAGAATTAAGTGTTGGAAAAAGGACAATTTGTCCTGAAAAGATTCCAATTATGAACGT
binding result [4]: binds | binding result (M.SsoII (monomer on DNA) [5]): binds

B5: 60reg-3 (dsDNA)
DNA 1: B4 DNA 1 with T20G, T21C, T40G, T41C
DNA 2: B4 DNA 2 with A20G, A21C, A40G, A41C
binding result [4]: binds

B6: 60met-mC (dsDNA)
DNA 1: GACTTACAGTTGATAGTATGAAGCTAGAGCCAGGTTGGCAGCATTCTACTCATGTACTTG
DNA 2: CAAGTACATGAGTAGAATGCTGCCAACCTGGCTCTAGCTTCATACTATCAACTGTAAGTC
modifications: 5-methylcytosine in top strand of methylation site
binding result (M.SsoII (monomer on DNA) [6]): binds

B7: 60met (dsDNA)
DNA 1: B6 DNA 1
DNA 2: B6 DNA 2
binding result (M.SsoII (monomer on DNA) [7]): binds

B8: 60reg-4 (dsDNA)
DNA 1: GAAAGTTTTTTCATGCACGTTCATAATTGGAATCAAAACAGGACAAATTGTCCTAAAACC
DNA 2: GGTTTTAGGACAATTTGTCCTGTTTTGATTCCAATTATGAACGTGCATGAAAAAACTTTC
binding result (M.SsoII (monomer on DNA) [8]): binds
